Assay results taken from patent US6458368.

How the values were obtained:
[1] = molecular target: baculo-derived HPV16 VLPs in PBS (native form) (Human papillomavirus type 16) (UniProt P03101); test: ELISA, plates coated with baculo-derived HPV16 VLPs in PBS; antibody stock 35 µg/ml
[2] = molecular target: unfolded HPV16 VLP (baculo-derived HPV16 VLPs in 0.2M carbonate buffer pH9.5) (Human papillomavirus type 16) (UniProt P03101); test: ELISA, plates coated with VLP in carbonate buffer pH 9.5; antibody stock 35 µg/ml

Substance: HPV16-L1 mAb CAMVIR-1 (antibody)
- IgG titer (reciprocal of the highest sample dilution that yielded an OD492 four times that of preimmune sample) (reciprocal dilution) [1]: 16000
- IgG titer (reciprocal of the highest sample dilution that yielded an OD492 four times that of preimmune sample) (reciprocal dilution) [2]: 80000
